Test results from the DeepSol protein solubility set.

Assay: soluble on expression in E. coli; label from the status in PepcDB or PDB records

Row | Sequence | soluble on expression in E. coli
1 | MGATGVASQRKTIEESIERNKEKYIETSHDIHANPEIGNQEFYASRTLSLLLGSAGFQLQHNIAGHETGFIARKSSGKQGPAIAFLAEYDALPGLGHACGHNLIGTISVAAAIALSETLEEIGGEVVVFGTPAEEGGPNGSAKSSYVKAGLFKNIDAALMIHPSGKTATTSPSLAVDPLDFHFYGKTAHAAASPEEGINALDAVIQLYNSINALRQQLPSDVKIHGVITEGGKAPNIIPDYAAARFFIRAATRKRCAEVTEKVKNIAQGAALATDTKVKIHQFQNEIDELLVTKTYNDVVAEELELLGEDVNRKERFGIGSTDAGNVSQVVPTIHPYIKIGPDDLIAHTNEFREAARSELGDKALITSAKALANTAYRLITEEGLLEKVKEEFREAQRNQG | not soluble
2 | MLGENHALIYEFPDFADHIRHLKKNNTIFATMAQRYHELDHKIRALELTKVPTDDEHFVALKLERLHLKDKLYQYLVHDAI | soluble
3 | MGSDKIHHHHHHMAKFDLTTPWGRFKTYLHYLWNDHAYLRLGFSNAHWISPELVRANQPWPFQLAWWKKRGIKTIVNLRGGFDGSFYALEKDACERLGLNFVDFVITSREVPIRERVRGAKELFERIEYPALMHCKSGADRAGIMSVFYAHYRLGQPIREAMQQLGPRYLHIKHGNTGVLDYVFEQYLEKGEPKGLTFSDWVESDDYDPVEMKKTFRAGMLGKVLTDKILRRE | not soluble
4 | GMSETITFPPLMTGEAAGPGQDPFDLACQKAELGVDAGLVVYELGTDVLRAALVLAPEVPLAKAMAMLPVCGVGFQNALGALAPPEVAVHLDWNGALRINGARCGRLRIAASTDDPDTQPDWLVVGLDLPLWPEGDGGETPDETALYAEGCADVAAPRLLESWARHCLHWINRWDEGELETIHGEWRGLAHGMGEARTEAGRSGTFLGVDEDFGMLLRDETTTHLIPLTTVLVQD | soluble
5 | MDSKAIAERIKKLQAQQEHVRIGGKGTPRRKKKVIHKTAAADDKKLQSNLKKLSVTNIPGIEEVNMIKDDGTVIHFNNPKVQTSVPANTFSVTGSADNKQITEMLPGILNQLGPESLTHLKKLANNVTKLGPDGKGEDEDVPELVGDFDAASKNETKADEQ | soluble
6 | MGSDKIHHHHHHMFKIVYPNAKDFFSFINSITNVTDSIILNFTEDGIFSRHLTEDKVLMAIMRIPKDVLSEYSIDSPTSVKLDVSSVKKILSKASSKKATIELTETDSGLKIIIRDEKSGAKSTIYIKAEKGQVEQLTEPKVNLAVNFTTDESVLNVIAADVTLVGEEMRISTEEDKIKIEAGEEGKRYVAFLMKDKPLKELSIDTSASSSYSAEMFKDAVKGLRGFSAPTMVSFGENLPMKIDVEAVSGGHMIFWIAPRL | not soluble
7 | MTLTAQKNSWWVGAHAGREYFNNTSEDMKKGWNTGVVLRYYFSDRIYSLATLNYGFASSLSPSGYFDELGNSPNARFRRHSILPAVGLGYEFFQGDFYSCYAQGGVGYGMEYNSVSYPQEYDVSVKRFGWLAELGGDYFLRDNLSLGISVAHLRVGWRNNWTANVKLSICLL | not soluble
8 | ATGPRYKVPMRRRREARTDYHQRLRLLKSGKPRLVARKSNKHVRAQLVTLGPNGDDTLASAHSSDLAEYGWEAPTGNMPSAYLTGLLAGLRAQEAGVEEAVLDIGLNSPTPGSKVFAIQEGAIDAGLDIPHNDDVLADWQRTRGAHIAEYDEQLEEPLYSGDFDAADLPEHFDELRETLLDGDIEL | soluble
9 | MAHHHHHHMSHEGAPQGEYVAILDAGSQYGKVIDRKVRELHVETSILSLNTPAEKLRNDANLKGIIISGGPSSVNDATSLAYDRAIFSMGKPVLGICYGMQMLTELYGGEVCRGKVREDGQDNIQVDTSSPIFAGLESTEAVLLTHGDSITAVGSELKVIARSSAGIISAVQHRSRPLFGVQFHPEVELTVSGKTIFKNFLQLCRCNFSFTMEDREAVALRLIRERTSGGQKVLCLASGGVDSTVCAVLLLKALGPERVVCIHIDHGFMRLNESVQAVEALNAAGVRVHLVKAQEDFAQASTEMTAKGSRAAYTTNKLREVTDPEEKRNIIGNTFMTVCDRVIKELQLDVENLLLAQGTLRPDLIESGSKYASVNAAAIKTHHNDTAVVRLLRDAGRIIEPLCDYHKDEVRELGARLGIPCRLLERQPFPGPGLAIRTLCTDGTPFRDGNFEDTQTTVKRVCMGADASSAEVAALAQKATLSACILPVRTVGVQGDGRTYAYAAALSMQTFPTAEQWATLIQLAKEIPKTAHAVNRVVFMFGPPQSESPSTVTPTYLTTDVLEKLRVADDKVNSILMKHQLVRSLSQVPIILIPIGFDKAGGYSVVVRTFLTNDFMTGIPATPGTAFMPLAVLEEIFNEVQKLEFVGRVMYDLTAKPPGTTEWE | not soluble
10 | MALPKFELLSLADNTVGWGPLASSSSADEPVPFQQFNKADRIGRVADWIGVDRFYRRGNERYNERVYGSAANAGSQFDYIHGMDEHNFQLVDTSKPMARNPQRNFRVRQMHLRKMMQKENEKREMVNQSTNLRMKRSIAKEQQRAFKMWQRRGGNARQGQRGQGGRFGGDRPKERLPSVQVRPEWVVLEEMNLSAFSKLALPNIPGGDDIGDHQYGSLQYYDKTIDRVSVKNSIPLQRCAGVFYNVTTTEDPVIQELAQGGAGNVFGTDIILATLMTAPRSVYSWDIVAYRVGDKLFFDKRNTRDILNPVETLTVSETSAEPPSFDGNGINNAKDLATEAFYINQNFRRQVVKRNDAGFTFKNARAPFEDEETGESGTAYKYRKWNLGNGVDGKPVELVCRTELDGVIHGLGNETQTLTIKAFNEWDSTQSGGVDWRTKLDVQKGAVMATEIKNNSAKVAKWTLQALLAGSDTMKLGYVSRNNARSTQNHSILLTQYVKPTEFASNIALNMDNCWGILRCVIDSCMKQKPGKYLLMKDPQSPVIRLYSLPEGTFESERESSDEENSDDDQ | not soluble
11 | MGSDKIHHHHHHMSLSPQASAAPEQGYNFAYLDEQTKRMIRRGLLKAVAIPGYQVPFGGREMPLPYGWGTGGMQVTAAILGADDVLKVIDQGADDTTNAVSIRRFFARTAGVATTERTPEATVIQTRHRIPETALSGEQIMVYQVPIPEPLRFIEPSEAETRTMHALDDYGVMHVKLYEDIATFGHIATSYAYPVTVDERYVMDPSPIPKFDNPKLDMNPALMLFGAGREKRLYAVPPFTRVASLDFEDHPFEVQRWEESCAFCGSHESYLDELIVDDRGGKRFVCSDTDYCTQRRARQEEGEDAQ | not soluble
12 | MNTLMTQIHELQHVAHELLYLGADGSPIYTDSFRQLNTEVLQKSDALFALKGENPEEEARLCLALLMGYNATIYDYGDKESKKQVILDRSLLVLESLPSSLLKCQLLTYCYGEVFEEELAKEAHAIIDYWDNKTLSIDEQETVDMLKMIEENQYPNNYID | not soluble
13 | MRKIRLVYRRFPNRVIMREDEVIEDFGDVIVAKSEFTGMLAPLRVNGVEVINNGYKMVYFAFIGRDFDVLKIYDPSGNFKGLYVDVLDYTRREGNTVEILDLFLDIFIFPEGEYYLLDEDELEMAFNYGIISREKLLKAYDTAERIIGQIKRGKFPPKIVWEYSL | not soluble
14 | MTNLFVRSGISFVDRSEVLTHIGNEMLAKGVVHDTWPQALIAREAEFPTGIMLEQHAIAIPHCEAIHAKSSAIYLLRPTNKVHFQQADDDNDVAVSLVIALIVENPQQQLKLLRCLFGKLQQPDIVETLITLPETQLKEYFTKYVLDSDE | soluble
15 | MVGYSSKLIFVSMITRHGDRAPFANIENANYSWGTELSELTPIGMNQEYNLGLQLRKRYIDKFGLLPEHYVDQSIYVLSSHTNRTVVSAQSLLMGLYPAGTGPLIGDGDPAIKDRFQPIPIMTLSADSRLIQFPYEQYLAVLKKYVYNSPEWQNKTKEAAPNFAKWQQILGNRISGLNDVITVGDVLIVAQAHGKPLPKGLSQEDADQIIALTDWGLAQQFKSQKVSYIMGGKLTNRMIEDLNNAVNGKSKYKMTYYSGHALTLLEVMGTLGVPLDTAPGYASNLEMELYKDGDIYTVKLRYNGKYVKLPIMDKNNSCSLDALNKYMQSINEKFQKHHHHHH | soluble
16 | MGSDKIHHHHHHMRDRTVEIMWQAIDALDFSRIKAKLSHQKQVQWTPESLESAEAGYRQFLKMAAKYPGVPAVPSEQVDAFWHAHILDTRRYASDCVNIFGHVLHHDPYVGIDGPEDEARLFEMAAQSDVLSMREFGSPLTSASYFAQAAADEPAYCAREATAAEPAYCARMAKGPSYCARMGKALEPAYCAREATANEVVKRDHAAGGQAAYCALTLSQPASC | not soluble
